Reference: patent publication US20100260805A1 (CIRCASSIA, published 2010)

How the values were obtained:
Assay in all cases: competitive MHC class II binding assay
[1] = molecular target: T1, DQA1*0102/DQB1*0602 (human, UniProt P01920 33-230, limits assumed)
T1 construct: human MHC class II allotype
T1 MHC II alpha: not shown
T1 MHC II beta: not shown

[2] = molecular target: T2, HLA-DRB1*1501 (human)
T2 construct: human MHC class II allotype

[3] = molecular target: T3, HLA-DRB1*0701 (human)
T3 construct: human MHC class II allotype

[4] = molecular target: T4, HLA-DRB1*1101 (human)
T4 construct: human MHC class II allotype

[5] = molecular target: T5, HLA-DRB1*0401 (human)
T5 construct: human MHC class II allotype

[6] = molecular target: T6, HLA-DRB1*1301 (human)
T6 construct: human MHC class II allotype

[7] = molecular target: T7, HLA-DRB1*0101 (human)
T7 construct: human MHC class II allotype

[8] = molecular target: T8, HLA-DRB1*0301 (human)
T8 construct: human MHC class II allotype

Measured: binding result

EYIQHNGVVQESY [HDM05]
no binding: [1] | [2] | [3] | [4] | [5] | [6] | [7] | [8]

PNVNKIREALAQT [HDM07]
no binding: [1] | [2] | [3] | [4] | [5] | [6] | [7] | [8]

KSETFDPMKVPDHSD [HDM29B]
no binding: [1] | [2] | [3] | [4] | [5] | [6] | [7] | [8]

IGIIDLKGELDMRN [HDM31]
no binding: [1] | [2] | [3] | [4] | [5] | [6] | [7] | [8]

HIGIIDLKGELDMRN [HDM31A]
no binding: [1] | [2] | [3] | [4] | [5] | [6] | [7] | [8]

IDLKGELDMRNIQVR [HDM32A]
no binding: [1] | [2] | [3] | [4] | [5] | [6] | [7] | [8]

KRVGDANVKSEDG [HDM36]
no binding: [1] | [2] | [3] | [4] | [5] | [6] | [7] | [8]

ANVKSEDGVVKAH [HDM37]
no binding: [1] | [2] | [3] | [4] | [5] | [6] | [7] | [8]

KVLAPAFKKELER [HDM50]
no binding: [1] | [2] | [3] | [4] | [5] | [6] | [7] | [8]

NKIREALAQTHSA [HDM08]
no binding: [1] | [2] | [3] | [4] | [5] | [6] | [7] | [8]
